Drawing on paper PMC6133988, “Characterization of Arabidopsis thaliana Hydroxyphenylpyruvate Reductases in the Tyrosine Conversion Pathway” (Frontiers in Plant Science, 2018), this text covers Km, kcat and kcat/Km for three proteins.

What all share (assay): LC-MRM-MS product quantification, non-linear regression
What all share (assay type): biochemical, Arabidopsis thaliana

Substrate in data set [1]: O=C(O)C(=O)CO
Conditions: NADH (2 mM), 100 mM potassium phosphate pH 7.0, 4 mM DTT, 40 μM ascorbate, 30 °C. The text has this:
LC-MRM-MS product quantification, non-linear regression on HPR1

Substrate in data set [2]: O=C(O)C(=O)CO
Conditions: NADPH (2 mM), 100 mM potassium phosphate pH 7.0, 4 mM DTT, 40 μM ascorbate, 30 °C. The text has this:
(§1) LC-MRM-MS product quantification, non-linear regression on HPPR3

Substrate in data set [3]: O=C(O)C(=O)Cc1ccc(O)cc1
Particulars: NADPH (2 mM), 100 mM potassium phosphate pH 7.0, 4 mM DTT, 40 μM ascorbate, 30 °C.
Source text: as §1

Substrate in data set [4]: O=C(O)C(=O)Cc1ccccc1
Particulars: NADPH (2 mM), 100 mM potassium phosphate pH 7.0, 4 mM DTT, 40 μM ascorbate, 30 °C.
Source text: as §1

Substrate in data set [5]: O=C(O)C(=O)CO
Conditions: NADPH (2 mM), 100 mM potassium phosphate pH 7.0, 4 mM DTT, 40 μM ascorbate, 30 °C. An excerpt: (§2) LC-MRM-MS product quantification, non-linear regression on HPPR2
The source holds these as a separate data set.

Substrate in data set [6]: O=C(O)C(=O)Cc1ccc(O)cc1
Conditions: NADPH (2 mM), 100 mM potassium phosphate pH 7.0, 4 mM DTT, 40 μM ascorbate, 30 °C.
Source text: as §2
The source holds these as a separate data set.

Substrate in data set [7]: O=C(O)C(=O)Cc1ccccc1
Particulars: NADPH (2 mM), 100 mM potassium phosphate pH 7.0, 4 mM DTT, 40 μM ascorbate, 30 °C.
Source text: as §2
This is another data set of the same source.

B1: HPR1 (Arabidopsis thaliana) (protein)
chain: MAKPVSIEVYNPNGKYRVVSTKPMPGTRWINLLVDQGCRVEICHLKKTILSVEDIIDLIGDKCDGVIGQLTEDWGETLFSALSKAGGKAFSNMAVGYNNVDVEAANKYGIAVGNTPGVLTETTAELAASLSLAAARRIVEADEFMRGGLYEGWLPHLFVGNLLKGQTVGVIGAGRIGSAYARMMVEGFKMNLIYFDLYQSTRLEKFVTAYGQFLKANGEQPVTWKRASSMEEVLREADLISLHPVLDKTTYHLVNKERLAMMKKEAILVNCSRGPVIDEAALVEHLKENPMFRVGLDVFEEEPFMKPGLADTKNAIVVPHIASASKWTREGMATLAALNVLGRVKGYPIWHDPNRVDPFLNENASPPNASPSIVNSKALGLPVSKL
notes: coding region from Arabidopsis cDNA in pDEST17, His-tagged, E. coli, Ni-NTA purified
Consider B1, for which, in data set [1], the Km (in general, the substrate concentration at which the rate is half of its maximum) came out at 1.53 ± 0.72 mM; the kcat (usually the number of substrate molecules converted per active site and unit of time at saturation) stood at 3.46 ± 0.0838 s⁻¹; the specificity constant (kcat/Km) (usually the turnover number divided by the Michaelis constant) came out at 2570 ± 1040 M⁻¹ s⁻¹.

B2: HPPR3 (Arabidopsis thaliana) (protein)
chain: MAESSEPPVVLLHRPPSLTFMDEILTREFRTLITDTSSSESLPSFFPRHASSARAFVISGRLPVTDELLSHLPSLQILVCTSVGIDHIDLAACKRRGIVITNAGNAFSDDVADCAVGLLISVLRRIPAADRYVRSGNWAKFGDFQLGSKVSGKRVGIVGLGSIGSFVAKRLESFGCVISYNSRSQKQSSPYRYYSDILSLAENNDVLVLCCSLTDETHHIVNREVMELLGKDGVVINVGRGKLIDEKEMVKCLVDGVIGGAGLDVFENEPAVPQELFGLDNVVLSPHFAVATPGSLDNVAQIALANLKAFFSNRPLLSPVQLD
notes: as for B1
B2: in data set [2], the Km is given as 3.57 ± 0.48 mM, the kcat was 0.0518 ± 0.0035 s⁻¹ and the catalytic efficiency (kcat/Km) is 14.8 ± 2.83 M⁻¹ s⁻¹. For the same protein, in data set [3], the Km is listed as 0.37 ± 0.06 mM, the turnover number (kcat) was 0.285 ± 0.0158 s⁻¹ and the kcat/Km turned out to be 785 ± 87.3 M⁻¹ s⁻¹. In data set [4], the Km is reported as 1.52 ± 0.05 mM, the turnover number (kcat) is 0.611 ± 0.0692 s⁻¹ and the specificity constant (kcat/Km) is 402 ± 49.2 M⁻¹ s⁻¹.

B3: HPPR2 (Arabidopsis thaliana) (protein)
chain: MESIGVLMMCPMSSYLENELEKRFNLLRFWTSPEKSVLLETHRNSIRAVVGNASAGADAQLISDLPNLEIVSSFSVGLDKIDLGKCKEKGIRVTNTPDVLTEDVADLAIGLILALLRRLCECDRYVRSGKWKQGEFQLTTKFSGKSVGIIGLGRIGTAIAKRAEAFSCPINYYSRTIKPDVAYKYYPTVVDLAQNSDILVVACPLTEQTRHIVDRQVMDALGAKGVLINIGRGPHVDEQELIKALTEGRLGGAALDVFEQEPHVPEELFGLENVVLLPHVGSGTVETRNAMADLVVGNLEAHFSGKSLLTPVV
notes: as for B1
On to B3, for which the Michaelis-Menten constant (Km) in data set [5] is reported as 1.05 ± 0.39 mM; in data set [6], 0.80 ± 0.16 mM; in data set [7], 3.70 ± 0.75 mM. Also, the kcat in data set [5] stood at 0.926 ± 0.0788 s⁻¹; in data set [6], 0.122 ± 0.0085 s⁻¹; in data set [7] it was 0.0333 ± 0.00983 s⁻¹. Further, the kcat/Km in data set [5] came to 950 ± 296 M⁻¹ s⁻¹; in data set [6], 157 ± 36.3 M⁻¹ s⁻¹; in data set [7], 9 ± 1.17 M⁻¹ s⁻¹.
